Source: patent US20100129369A1 (Eli Lilly, published 2010)

B1: D11-8B8 (antibody, human IgG2, kappa, V domains shown)
VH: QVQLVQSGAEVKKPGSSVKVSCKASGYTFTSRYIHWVRQAPGQGLEWMGWIYPVTGDTYYIEKFKGRVTITADKSTSTAYMELSSLRSEDTAVYYCARGYGAFFYWGQGTLVTVSS
VL: EIVLTQSPGTLSLSPGERATLSCSVSSSISSTNLHWYQQKPGQAPRLLIYGTSYLASGIPDRFSGSGSGTDFTLTISRLEPEDFAVYYCQQWSSYPYSFGQGTKLEIKR
notes: Human engineered IgG2 kappa c-Met antibody; also called Mab D11-8B8; D11-8B8 IgG2
B2: C8-H241 (antibody, human IgG2, kappa, V domains shown)
VH: QVQLVQSGAEVKKPGASVKVSCKASGYTFTDYYMHWVRQAPGQGLEWMGRVNPNRRGTTYNQKFEGRVTMTTDTSTSTAYMELRSLRSDDTAVYYCARANWLDYWGQGTTVTVSS
VL: DIQMTQSPSSLSASVGDRVTITCSVSSSVSSIYLHWYQQKPGKAPKLLIYSTSNLASGVPSRFSGSGSGTDFTLTISSLQPEDFATYYCQVYSGYPLTFGGGTKVEIKR
notes: Named IgG4 kappa; also called Mab C8-H241
B3: C8-6 (antibody, human IgG2, kappa, V domains shown)
VH: QVQLVQSGAEVKKPGASVKVSCKASGYTFTDYYMHWVRQAPGQGLEWMGRVNPNRGGTTYNQKFEGRVTMTTDTSTSTAYMELRSLRSDDTAVYYCARTNWLDYWGQGTTVTVSS
VL: DIQMTQSPSSLSASVGDRVTITCSVSSSVSSIYLHWYQQKPGKAPKLLIYSTSNLASGVPSRFSGSGSGTDFTLTISSLQPEDFATYYCIQYSGYPLTFGGGTKVEIKR
notes: Named IgG4 kappa; also called C8-6 IgG4

Assays:
human c-Met [1] = target: T1, human c-Met (human, UniProt P08581 25-1390); test: cell-based or functional assay
human c-Met ECD-Fc-Flis [2] = target: T2, human c-Met ECD-Fc-Flis (human); test: HGF-blocking ELISA: HGF signal on coated c-Met ECD-Fc-Flis; Ab 122.07 ng/mL
T2 construct: c-Met ECD fused to Fc with flag- and His-tag at the C-terminus; also called human c-Met extracellular domain (ECD)-Fc-Flis fusion; human c-Met-Flis-Fc ECD
Method: (§1) Wells of 96-well EIA/RIA high binding plates (Costar, #2592) are coated with 100 μL of human c-Met ECD-Fc-Flis (SEQ ID NO:72) (2 μg/mL) in Dulbecco's phosphate buffered saline (DPBS) overnight at room temperature; washed four times with wash buffer (Tris-buffered saline, pH 8.0, with 0.05% (v/v) polysorbate 20 (TWEEN®-20) (TBS-T) (BioFX Labs, # WSHW-1000-01) in a plate washer; blocked by adding 300 μL of blocking buffer (TBS-T plus 1% (w/v) bovine serum albumin (BSA) (Jackson Immuno, #001-000-162); and incubating for 60 min. at 37° C. Blocking buffer is then removed from the wells and 50 μL of antibodies in blocking buffer at final concentrations as indicated in Table 7 are added into each well, respectively. […] The plates with c-Met antibodies are incubated for 90 min. at 37° C. […] The wells are then washed four times with TBS-T in a plate washer. […] The plates are incubated for 90 min. at room temperature. The wells are again washed four times with TBS-T in a plate washer. 100 μL of a 1:200 dilution of streptavidin-horseradish peroxidase (HRP) (R&D Systems, DY998) in blocking buffer are added to each well. The plates are incubated for 30 min. at room temperature. The wells are washed four times with TBS-T in a plate washer. 100 μL/well of substrate solution (BioFx, #TMBW-1000-01) are then added, and the plates are incubated for 10 min. at room temperature. To stop the reaction, 100 μL/well of stop solution (BioFx, # LSTP-1000-01) are added. The samples are read at a wavelength of 450-570 nm on a microplate reader (Spectra, MAX 190) and no background is subtracted.

human c-Met ECD-Fc-Flis [3] = target: T2, human c-Met ECD-Fc-Flis; test: HGF-blocking ELISA: HGF signal on coated c-Met ECD-Fc-Flis; Ab 31250.00 ng/mL
Method: as §1

human c-Met [4] = target: T1, human c-Met; test: cell-based or functional assay; remark: listed apart in the source
human c-Met ECD-Fc-Flis [5] = target: T2, human c-Met ECD-Fc-Flis; test: HGF-blocking ELISA: HGF signal on coated c-Met ECD-Fc-Flis; Ab 0.48 ng/mL
Method: as §1

human c-Met ECD-Fc-Flis [6] = target: T2, human c-Met ECD-Fc-Flis; test: HGF-blocking ELISA: HGF signal on coated c-Met ECD-Fc-Flis; Ab 1953.13 ng/mL
Method: as §1

human c-Met ECD-Fc-Flis [7] = target: T2, human c-Met ECD-Fc-Flis; test: HGF-blocking ELISA: HGF signal on coated c-Met ECD-Fc-Flis; Ab 7812.50 ng/mL
Method: as §1

human c-Met ECD-Fc-Flis [8] = target: T2, human c-Met ECD-Fc-Flis; test: HGF-blocking ELISA: HGF signal on coated c-Met ECD-Fc-Flis; Ab 0.00 ng/mL (HGF only)
Method: as §1

human c-Met ECD-Fc-Flis [9] = target: T2, human c-Met ECD-Fc-Flis; test: HGF-blocking ELISA: HGF signal on coated c-Met ECD-Fc-Flis; Ab 125000.00 ng/mL
Method: as §1

human c-Met ECD-Fc-Flis [10] = target: T2, human c-Met ECD-Fc-Flis; test: HGF-blocking ELISA: HGF signal on coated c-Met ECD-Fc-Flis; Ab 30.52 ng/mL
Method: as §1

human c-Met ECD-Fc-Flis [11] = target: T2, human c-Met ECD-Fc-Flis; test: HGF-blocking ELISA: HGF signal on coated c-Met ECD-Fc-Flis; Ab 1.91 ng/mL
Method: as §1

human c-Met [12] = target: T1, human c-Met; test: cell-based or functional assay; remark: listed apart in the source
human c-Met ECD-Fc-Flis [13] = target: T2, human c-Met ECD-Fc-Flis; test: HGF-blocking ELISA: HGF signal on coated c-Met ECD-Fc-Flis; Ab 488.28 ng/mL
Method: as §1

human c-Met ECD-Fc-Flis [14] = target: T2, human c-Met ECD-Fc-Flis; test: HGF-blocking ELISA: HGF signal on coated c-Met ECD-Fc-Flis; Ab 7.63 ng/mL
Method: as §1

T1 sequence (P08581 25-1390): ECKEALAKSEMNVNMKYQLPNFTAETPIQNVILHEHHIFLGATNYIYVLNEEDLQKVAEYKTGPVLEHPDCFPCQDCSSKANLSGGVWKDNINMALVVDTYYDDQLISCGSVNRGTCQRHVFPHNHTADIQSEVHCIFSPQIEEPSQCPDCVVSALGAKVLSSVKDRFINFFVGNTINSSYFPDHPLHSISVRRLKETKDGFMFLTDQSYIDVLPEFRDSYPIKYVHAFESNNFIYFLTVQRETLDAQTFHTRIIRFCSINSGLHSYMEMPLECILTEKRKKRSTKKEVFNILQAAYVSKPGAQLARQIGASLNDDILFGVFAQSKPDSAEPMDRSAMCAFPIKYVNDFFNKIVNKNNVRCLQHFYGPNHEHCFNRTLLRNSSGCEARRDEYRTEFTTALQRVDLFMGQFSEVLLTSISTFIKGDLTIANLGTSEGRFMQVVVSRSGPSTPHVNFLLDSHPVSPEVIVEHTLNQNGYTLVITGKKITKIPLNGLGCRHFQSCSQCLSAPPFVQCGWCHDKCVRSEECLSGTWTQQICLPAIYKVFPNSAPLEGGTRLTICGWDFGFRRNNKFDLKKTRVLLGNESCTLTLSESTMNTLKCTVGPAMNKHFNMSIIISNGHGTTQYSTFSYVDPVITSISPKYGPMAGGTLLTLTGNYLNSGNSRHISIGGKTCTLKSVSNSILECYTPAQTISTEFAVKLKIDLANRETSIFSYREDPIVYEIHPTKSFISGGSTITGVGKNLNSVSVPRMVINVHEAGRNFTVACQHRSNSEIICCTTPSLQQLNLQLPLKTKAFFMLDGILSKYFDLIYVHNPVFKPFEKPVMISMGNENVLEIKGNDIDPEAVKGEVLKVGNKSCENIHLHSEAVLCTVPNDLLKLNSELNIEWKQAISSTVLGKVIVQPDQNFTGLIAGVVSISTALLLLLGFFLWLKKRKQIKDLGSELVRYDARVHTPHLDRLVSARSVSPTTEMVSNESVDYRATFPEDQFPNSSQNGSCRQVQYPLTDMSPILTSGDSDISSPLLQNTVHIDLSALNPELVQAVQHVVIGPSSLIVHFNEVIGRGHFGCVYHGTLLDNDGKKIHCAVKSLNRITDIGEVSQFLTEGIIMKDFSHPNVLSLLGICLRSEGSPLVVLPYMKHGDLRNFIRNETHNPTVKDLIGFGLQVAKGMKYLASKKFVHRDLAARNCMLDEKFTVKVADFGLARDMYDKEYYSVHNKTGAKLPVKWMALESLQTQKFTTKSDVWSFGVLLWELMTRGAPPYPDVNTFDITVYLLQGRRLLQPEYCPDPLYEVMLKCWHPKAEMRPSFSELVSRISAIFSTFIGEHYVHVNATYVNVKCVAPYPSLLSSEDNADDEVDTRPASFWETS
T2 sequence (chain, as listed by the source): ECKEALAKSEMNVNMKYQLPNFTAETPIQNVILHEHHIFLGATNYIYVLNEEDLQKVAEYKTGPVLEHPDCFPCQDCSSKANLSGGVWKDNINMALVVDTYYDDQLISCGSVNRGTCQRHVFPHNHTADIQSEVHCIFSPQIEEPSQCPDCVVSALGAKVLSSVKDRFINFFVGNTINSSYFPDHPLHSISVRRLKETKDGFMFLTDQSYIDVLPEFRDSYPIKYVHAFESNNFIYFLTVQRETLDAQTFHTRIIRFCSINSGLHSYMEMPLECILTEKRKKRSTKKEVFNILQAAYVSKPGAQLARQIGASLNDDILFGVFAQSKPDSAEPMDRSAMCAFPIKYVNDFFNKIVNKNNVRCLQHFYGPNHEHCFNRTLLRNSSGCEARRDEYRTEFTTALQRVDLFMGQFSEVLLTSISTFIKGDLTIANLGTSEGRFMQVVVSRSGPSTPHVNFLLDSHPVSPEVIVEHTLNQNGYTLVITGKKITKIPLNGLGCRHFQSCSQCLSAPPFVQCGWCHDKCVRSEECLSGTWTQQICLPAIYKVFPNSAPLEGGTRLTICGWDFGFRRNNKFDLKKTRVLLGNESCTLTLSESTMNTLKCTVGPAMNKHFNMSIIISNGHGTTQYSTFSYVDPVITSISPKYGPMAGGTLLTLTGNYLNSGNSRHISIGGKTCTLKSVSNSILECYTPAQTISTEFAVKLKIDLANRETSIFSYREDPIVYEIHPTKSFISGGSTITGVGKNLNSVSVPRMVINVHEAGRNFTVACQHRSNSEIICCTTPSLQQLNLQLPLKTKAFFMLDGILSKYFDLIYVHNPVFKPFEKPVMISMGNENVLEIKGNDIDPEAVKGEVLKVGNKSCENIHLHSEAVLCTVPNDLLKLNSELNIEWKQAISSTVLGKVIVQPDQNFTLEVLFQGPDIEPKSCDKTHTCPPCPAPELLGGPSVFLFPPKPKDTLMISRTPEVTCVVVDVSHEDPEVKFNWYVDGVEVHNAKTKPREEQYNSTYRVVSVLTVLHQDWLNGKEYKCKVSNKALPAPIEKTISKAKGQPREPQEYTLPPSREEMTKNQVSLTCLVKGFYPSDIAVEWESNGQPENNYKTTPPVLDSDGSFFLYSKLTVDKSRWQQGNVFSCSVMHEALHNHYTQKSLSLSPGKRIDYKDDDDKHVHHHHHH

AVG CPM, 3H-thymidine incorporation in MKN45 cells, Ab 0.0 ng/mL (no antibody) (human c-Met [1])	AVG CPM, 3H-thymidine incorporation in MKN45 cells, Ab 0.1 ng/mL (human c-Met [1])	AVG CPM, 3H-thymidine incorporation in MKN45 cells, Ab 0.4 ng/mL (human c-Met [1])	AVG CPM, 3H-thymidine incorporation in MKN45 cells, Ab 2.6 ng/mL (human c-Met [1])	AVG CPM, 3H-thymidine incorporation in MKN45 cells, Ab 15.4 ng/mL (human c-Met [1])	AVG CPM, 3H-thymidine incorporation in MKN45 cells, Ab 92.6 ng/mL (human c-Met [1])	AVG CPM, 3H-thymidine incorporation in MKN45 cells, Ab 555.6 ng/mL (human c-Met [1])	AVG CPM, 3H-thymidine incorporation in MKN45 cells, Ab 3333.3 ng/mL (human c-Met [1])	AVG CPM, 3H-thymidine incorporation in MKN45 cells, Ab 20000.0 ng/mL (human c-Met [1])	AVG A450 nm (human c-Met ECD-Fc-Flis [2])	AVG A450 nm (human c-Met ECD-Fc-Flis [3])	AVG A450 nm (human c-Met ECD-Fc-Flis [5])	AVG A450 nm (human c-Met ECD-Fc-Flis [6])	AVG A450 nm (human c-Met ECD-Fc-Flis [7])	AVG A450 nm (human c-Met ECD-Fc-Flis [8])	AVG A450 nm (human c-Met ECD-Fc-Flis [9])	AVG A450 nm (human c-Met ECD-Fc-Flis [10])	AVG A450 nm (human c-Met ECD-Fc-Flis [11])	AVG A450 nm (human c-Met ECD-Fc-Flis [13])	AVG A450 nm (human c-Met ECD-Fc-Flis [14])	also measured	Binder
50400 CPM	41600 CPM	43300 CPM	44700 CPM	24400 CPM	11100 CPM	11900 CPM	11400 CPM	11200 CPM	1.92 A450 nm	1.31 A450 nm	2.51 A450 nm	1.43 A450 nm	1.24 A450 nm	2.43 A450 nm	1.38 A450 nm	2.32 A450 nm	2.48 A450 nm	1.3 A450 nm	2.41 A450 nm	Mean Fluorescence (c-Met left on the surface of MKN45 cells, FACS), Ab 5.00 ug/mL (human c-Met [4]): 44.7; % inhibition of HGF stimulated phospho-Met (ELISA, HCT116 cells), Ab 0.0032 µg/mL (human c-Met [12]): -10.4%; % inhibition of HGF stimulated phospho-Met (ELISA, HCT116 cells), Ab 0.016 µg/mL (human c-Met [12]): -6.68%; % inhibition of HGF stimulated phospho-Met (ELISA, HCT116 cells), Ab 0.08 µg/mL (human c-Met [12]): 10.5%; % inhibition of HGF stimulated phospho-Met (ELISA, HCT116 cells), Ab 0.4 µg/mL (human c-Met [12]): 35%; % inhibition of HGF stimulated phospho-Met (ELISA, HCT116 cells), Ab 2 µg/mL (human c-Met [12]): 40.7%; % inhibition of HGF stimulated phospho-Met (ELISA, HCT116 cells), Ab 10 µg/mL (human c-Met [12]): 19.6%	B1
–	–	–	–	–	–	–	–	–	1.77 A450 nm	–	2.45 A450 nm	0.68 A450 nm	0.7 A450 nm	2.61 A450 nm	0.69 A450 nm	2.42 A450 nm	2.46 A450 nm	0.73 A450 nm	2.53 A450 nm	–	B2
48700 CPM	51700 CPM	53400 CPM	54600 CPM	44800 CPM	23000 CPM	18300 CPM	18200 CPM	16400 CPM	2 A450 nm	0.98 A450 nm	2.56 A450 nm	1.08 A450 nm	0.95 A450 nm	2.61 A450 nm	1.32 A450 nm	2.42 A450 nm	2.59 A450 nm	1.33 A450 nm	2.64 A450 nm	Mean Fluorescence (c-Met left on the surface of MKN45 cells, FACS), Ab 5.00 ug/mL (human c-Met [4]): 67.9; % inhibition of HGF stimulated phospho-Met (ELISA, HCT116 cells), Ab 0.0032 µg/mL (human c-Met [12]): -11.3%; % inhibition of HGF stimulated phospho-Met (ELISA, HCT116 cells), Ab 0.016 µg/mL (human c-Met [12]): -6.06%; % inhibition of HGF stimulated phospho-Met (ELISA, HCT116 cells), Ab 0.08 µg/mL (human c-Met [12]): 7.79%; % inhibition of HGF stimulated phospho-Met (ELISA, HCT116 cells), Ab 0.4 µg/mL (human c-Met [12]): 16.8%; % inhibition of HGF stimulated phospho-Met (ELISA, HCT116 cells), Ab 2 µg/mL (human c-Met [12]): 27.9%; % inhibition of HGF stimulated phospho-Met (ELISA, HCT116 cells), Ab 10 µg/mL (human c-Met [12]): 14.9%	B3
